In patent publication US20130288983A1 (Amgen, published 2013):

T1: Activin A (Homo sapiens (Human), UniProt P08476 311-426)
T1 sequence: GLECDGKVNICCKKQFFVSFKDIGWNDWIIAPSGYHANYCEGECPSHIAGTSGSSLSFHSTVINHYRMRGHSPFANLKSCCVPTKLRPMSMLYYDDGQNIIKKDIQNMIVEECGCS


How the values were obtained:
[1] = molecular target: Myostatin (human) (UniProt O14793); experiment: cell-based or functional assay
[2] = molecular target: T1, Activin A; experiment: Biacore SPR grade, COS stable conditioned media, 20 nM activin A
Protocol: (§1) Qualitative BIAcore® Assay. E28 and R40 were substituted respectively with other natural amino acids in fusions with IgG1 Fc as described above. Each vActRIIB-IgG1Fc sample from conditioned media was captured on goat anti-human IgG1 Fc antibody (Jackson Immuno Research, cat#109-005-098, lot 63550) coated CMS surface. 20 nM of Activin A was injected over captured sample surfaces using BIACore2000 (BIACore Life Sciences, Piscataway, N.J.). The resulting sensorgrams were normalized to the captured RL (500 RU) of vActRIIB-IgG1Fc variants. The normalized binding response (RU) for some variants are shown in Table 2, and is further described below. Relative binding affinity for activin was also determined by Biacore measurements using conditioned media obtained from mammalian cell expression. Activin A (20 nM) was used to capture soluble receptor polypeptide in the conditioned media and measured SPR signals were normalized. Normalized SPR of +++++: >60, ++++:40-60, +++:20-40, ++:10-20, +: 5-10, −: <5.

[3] = molecular target: T1, Activin A; experiment: Biacore SPR grade, COS transient conditioned media, 20 nM activin A
Protocol: as §1

[4] = molecular target: T1, Activin A; experiment: Biacore SPR grade, CHO stable conditioned media, 20 nM activin A
Protocol: as §1

Sequence of Myostatin (human) (O14793 267-375 limits assumed): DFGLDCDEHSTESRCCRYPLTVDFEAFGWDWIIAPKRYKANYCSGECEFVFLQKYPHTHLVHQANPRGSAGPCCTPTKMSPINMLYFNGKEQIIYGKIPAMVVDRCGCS

| Molecule | IC50 (nM) for myostatin cell based assay, C2C12/pMARE-luc, 4 nM myostatin [1] [nM] | Normalized SPR [2] [ru] | also measured |
| --- | --- | --- | --- |
| ActRIIB-IgG1 Fc wild type, no linker (Fc fusion, Tested from conditioned media) SGRGEAETRECIYYNANWELERTNQSGLERCEGEQDKRLHCYASWRNSSGTIELVKKGCWLDDFNCYDRQECVATEENPQVYFCCCEGNFCNERFTHLPEAGGPEVTYEPPPTAPTAPELLGGPSVFLFPPKPKDILMISRTPEVTCVVVDVSHEDPEVKFNWYVGGVEVHNAKTKPREEQYNSTYRVVSVLTVLHQDWLNGKEYKCKVSNKALPAPIEKTISKAKGQPREPQVYTLPPSRDELTKNQVSLTCLVKGFYPSDIAVEWESNGQPENNYKTTPPVLDSDGSFFLYSKLTVDKSRWQQGNVFSCSVMHEALHNHYTQKSLSLSPGK | – | 10 to 20 | – |
| ActRIIB-IgG1 Fc E28A, no linker (Fc fusion, Tested from conditioned media) SGRGEAETRACIYYNANWELERTNQSGLERCEGEQDKRLHCYASWRNSSGTIELVKKGCWLDDFNCYDRQECVATEENPQVYFCCCEGNFCNERFTHLPEAGGPEVTYEPPPTAPTAPELLGGPSVFLFPPKPKDILMISRTPEVTCVVVDVSHEDPEVKFNWYVGGVEVHNAKTKPREEQYNSTYRVVSVLTVLHQDWLNGKEYKCKVSNKALPAPIEKTISKAKGQPREPQVYTLPPSRDELTKNQVSLTCLVKGFYPSDIAVEWESNGQPENNYKTTPPVLDSDGSFFLYSKLTVDKSRWQQGNVFSCSVMHEALHNHYTQKSLSLSPGK | – | 10 to 20 | – |
| ActRIIB-IgG1 Fc E28A, linker GGGGS (Fc fusion, Tested from conditioned media) SGRGEAETRACIYYNANWELERTNQSGLERCEGEQDKRLHCYASWRNSSGTIELVKKGCWLDDFNCYDRQECVATEENPQVYFCCCEGNFCNERFTHLPEAGGPEVTYEPPPTAPTGGGGSAPELLGGPSVFLFPPKPKDILMISRTPEVTCVVVDVSHEDPEVKFNWYVGGVEVHNAKTKPREEQYNSTYRVVSVLTVLHQDWLNGKEYKCKVSNKALPAPIEKTISKAKGQPREPQVYTLPPSRDELTKNQVSLTCLVKGFYPSDIAVEWESNGQPENNYKTTPPVLDSDGSFFLYSKLTVDKSRWQQGNVFSCSVMHEALHNHYTQKSLSLSPGK | – | – | normalized SPR signal [3]: 5 to 10 ru; Normalized SPR [4]: 20 to 40 ru |

The next lines start with results.

| IC50 (nM) for myostatin cell based assay, C2C12/pMARE-luc, 4 nM myostatin [1] [nM] | Normalized SPR [2] [ru] | Molecule | also measured |
| --- | --- | --- | --- |
| 1 | – | hActRIIB-hIgG2Fc (E28Y) (SEQ ID NO: 93) (Fc fusion) | – |
| 1.1 | – | hActRIIB-hIgG2Fc (SEQ ID NO: 89) (Fc fusion) | – |
| 0.9 | – | hActRIIB-hIgG2Fc (E28W) (SEQ ID NO: 91) (Fc fusion) | – |
| – | 10 to 20 | ActRIIB-IgG1 Fc R40A, no linker (Fc fusion, Tested from conditioned media) SGRGEAETRECIYYNANWELEATNQSGLERCEGEQDKRLHCYASWRNSSGTIELVKKGCWLDDFNCYDRQECVATEENPQVYFCCCEGNFCNERFTHLPEAGGPEVTYEPPPTAPTAPELLGGPSVFLFPPKPKDILMISRTPEVTCVVVDVSHEDPEVKFNWYVGGVEVHNAKTKPREEQYNSTYRVVSVLTVLHQDWLNGKEYKCKVSNKALPAPIEKTISKAKGQPREPQVYTLPPSRDELTKNQVSLTCLVKGFYPSDIAVEWESNGQPENNYKTTPPVLDSDGSFFLYSKLTVDKSRWQQGNVFSCSVMHEALHNHYTQKSLSLSPGK | – |
